T1: PUF4 RNA-binding domain (Saccharomyces cerevisiae, UniProt P25339 537-888)
T1 sequence: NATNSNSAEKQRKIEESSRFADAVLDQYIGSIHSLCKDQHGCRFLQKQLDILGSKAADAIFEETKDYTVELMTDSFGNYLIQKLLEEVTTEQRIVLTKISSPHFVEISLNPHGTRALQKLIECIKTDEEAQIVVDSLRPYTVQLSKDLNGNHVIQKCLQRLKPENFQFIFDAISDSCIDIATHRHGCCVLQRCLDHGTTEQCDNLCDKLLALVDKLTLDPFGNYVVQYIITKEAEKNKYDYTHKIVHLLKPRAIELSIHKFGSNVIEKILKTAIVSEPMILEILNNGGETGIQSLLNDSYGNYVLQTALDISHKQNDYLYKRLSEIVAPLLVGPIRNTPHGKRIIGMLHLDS


Biological target: T1, PUF4 RNA-binding domain
Assay: Mg; RNA-MaP; 20 mM Na-HEPES pH 7.4, 30 mM KOAc, 0.75 mM MgCl2, 0.1% Tween-20, 5% glycerol, 0.1 mg/mL BSA, 2 mM DTT; 25 C; 0.0125-409.6 nM protein
Details: tags: N-His6-TEV cleaved; C-SNAP kept, Cy3B-labelled; label: tethered on chip by stalled RNA polymerase

Binder | Kd [nM]
UCUCUUUGUACGUGUUCUCUU (ssRNA) [Ic_S1_P4E.1_K4.1_C4.1_H4.1_A4.1_[T5C]_[A6G]_F4.1_[T8G]_[A9T]_T4.1] | 110
UCUCUUUGUACGUGAUCUCUU (ssRNA) [Ic_S1_P4E.1_K4.1_C4.1_H4.1_A4.1_[T5C]_[A6G]_F4.1_[T8G]_T4.1] | 629
UCUCUUUGUACGUCCUCUCUU (ssRNA) [Ic_S1_P4E.1_K4.1_C4.1_H4.1_A4.1_[T5C]_[A6G]_F4.1_[T8C]_[A9C]_T4.1] | 482
UCUCUUUGUACGUCUUCUCUU (ssRNA) [Ic_S1_P4E.1_K4.1_C4.1_H4.1_A4.1_[T5C]_[A6G]_F4.1_[T8C]_[A9T]_T4.1] | 1520
UCUCUUUGUACGUCAUCUCUU (ssRNA) [Ic_S1_P4E.1_K4.1_C4.1_H4.1_A4.1_[T5C]_[A6G]_F4.1_[T8C]_T4.1] | 118
UCUCUUUAUAUACAUCUCUU (ssRNA) [Ib_S1_P3E.1_K3.1_C3.1_H3.1_[G2A]_A3.1_F3.1_[T7C]_T3.1] | > 2300
UCUCUUUGUACGUAGUCUCUU (ssRNA) [Ic_S1_P4E.1_K4.1_C4.1_H4.1_A4.1_[T5C]_[A6G]_F4.1_[T8A]_[A9G]_T4.1] | 93.5
UCUCUUUGUACGUACUCUCUU (ssRNA) [Ic_S1_P4E.1_K4.1_C4.1_H4.1_A4.1_[T5C]_[A6G]_F4.1_[T8A]_[A9C]_T4.1] | 1560
UCUCUUUGUACGUAUUCUCUU (ssRNA) [Ic_S1_P4E.1_K4.1_C4.1_H4.1_A4.1_[T5C]_[A6G]_F4.1_[T8A]_[A9T]_T4.1] | 96.3
UCUCUUUGUACGUUGUCUCUU (ssRNA) [Ic_S1_P4E.1_K4.1_C4.1_H4.1_A4.1_[T5C]_[A6G]_F4.1_[A9G]_T4.1] | 40.5
UCUCUUUGUACGUUCUCUCUU (ssRNA) [Ic_S1_P4E.1_K4.1_C4.1_H4.1_A4.1_[T5C]_[A6G]_F4.1_[A9C]_T4.1] | 29.9
UCUCUUUGUACGUUUUCUCUU (ssRNA) [Ic_S1_P4E.1_K4.1_C4.1_H4.1_A4.1_[T5C]_[A6G]_F4.1_[A9T]_T4.1] | 37.8
UCUCUUUGUACCGGCUCUCUU (ssRNA) [Ic_S1_P4E.1_K4.1_C4.1_H4.1_A4.1_[T5C]_[A6C]_[T7G]_F4.1_[T8G]_[A9C]_T4.1] | > 2300
UCUCUUUGUACCGCGUCUCUU (ssRNA) [Ic_S1_P4E.1_K4.1_C4.1_H4.1_A4.1_[T5C]_[A6C]_[T7G]_F4.1_[T8C]_[A9G]_T4.1] | 1120
UCUCUUUGUACCGCCUCUCUU (ssRNA) [Ic_S1_P4E.1_K4.1_C4.1_H4.1_A4.1_[T5C]_[A6C]_[T7G]_F4.1_[T8C]_[A9C]_T4.1] | 1630
UCUCUUUGUACCGCUUCUCUU (ssRNA) [Ic_S1_P4E.1_K4.1_C4.1_H4.1_A4.1_[T5C]_[A6C]_[T7G]_F4.1_[T8C]_[A9T]_T4.1] | 741
UCUCUUUUUAUAAAUCUCUU (ssRNA) [Ib_S1_P3E.1_K3.1_C3.1_H3.1_[G2T]_A3.1_F3.1_[T7A]_T3.1] | > 2300
UCUCUUUGUACCGAUUCUCUU (ssRNA) [Ic_S1_P4E.1_K4.1_C4.1_H4.1_A4.1_[T5C]_[A6C]_[T7G]_F4.1_[T8A]_[A9T]_T4.1] | 519
UCUCUUUGUACCGUGUCUCUU (ssRNA) [Ic_S1_P4E.1_K4.1_C4.1_H4.1_A4.1_[T5C]_[A6C]_[T7G]_F4.1_[A9G]_T4.1] | 515
UCUCUUUGUACCGUCUCUCUU (ssRNA) [Ic_S1_P4E.1_K4.1_C4.1_H4.1_A4.1_[T5C]_[A6C]_[T7G]_F4.1_[A9C]_T4.1] | 1140
UCUCUUUGUACCGUUUCUCUU (ssRNA) [Ic_S1_P4E.1_K4.1_C4.1_H4.1_A4.1_[T5C]_[A6C]_[T7G]_F4.1_[A9T]_T4.1] | 142
UCUCUUUGUACCGUAUCUCUU (ssRNA) [Ic_S1_P4E.1_K4.1_C4.1_H4.1_A4.1_[T5C]_[A6C]_[T7G]_F4.1_T4.1] | 23.4
UCUCUUUGUACCCGGUCUCUU (ssRNA) [Ic_S1_P4E.1_K4.1_C4.1_H4.1_A4.1_[T5C]_[A6C]_[T7C]_F4.1_[T8G]_[A9G]_T4.1] | > 2300
UCUCUUUGUACCCGCUCUCUU (ssRNA) [Ic_S1_P4E.1_K4.1_C4.1_H4.1_A4.1_[T5C]_[A6C]_[T7C]_F4.1_[T8G]_[A9C]_T4.1] | 1420
UCUCUUUGUACCCGUUCUCUU (ssRNA) [Ic_S1_P4E.1_K4.1_C4.1_H4.1_A4.1_[T5C]_[A6C]_[T7C]_F4.1_[T8G]_[A9T]_T4.1] | 842
UCUCUUUGUACCCCGUCUCUU (ssRNA) [Ic_S1_P4E.1_K4.1_C4.1_H4.1_A4.1_[T5C]_[A6C]_[T7C]_F4.1_[T8C]_[A9G]_T4.1] | > 2300

Binder | Kd [nM]
UCUCUUUGUACCCCCUCUCUU (ssRNA) [Ic_S1_P4E.1_K4.1_C4.1_H4.1_A4.1_[T5C]_[A6C]_[T7C]_F4.1_[T8C]_[A9C]_T4.1] | 1090
UCUCUUUGCAUACAUCUCUU (ssRNA) [Ib_S1_P3E.1_K3.1_C3.1_H3.1_[T3C]_A3.1_F3.1_[T7C]_T3.1] | > 2300
UCUCUUUGUACCCCUUCUCUU (ssRNA) [Ic_S1_P4E.1_K4.1_C4.1_H4.1_A4.1_[T5C]_[A6C]_[T7C]_F4.1_[T8C]_[A9T]_T4.1] | 808
UCUCUUUGUACCCAGUCUCUU (ssRNA) [Ic_S1_P4E.1_K4.1_C4.1_H4.1_A4.1_[T5C]_[A6C]_[T7C]_F4.1_[T8A]_[A9G]_T4.1] | 1230
UCUCUUUGUACCCAUUCUCUU (ssRNA) [Ic_S1_P4E.1_K4.1_C4.1_H4.1_A4.1_[T5C]_[A6C]_[T7C]_F4.1_[T8A]_[A9T]_T4.1] | 517
UCUCUUUGUACCCAAUCUCUU (ssRNA) [Ic_S1_P4E.1_K4.1_C4.1_H4.1_A4.1_[T5C]_[A6C]_[T7C]_F4.1_[T8A]_T4.1] | 833
UCUCUUUGUACCCUGUCUCUU (ssRNA) [Ic_S1_P4E.1_K4.1_C4.1_H4.1_A4.1_[T5C]_[A6C]_[T7C]_F4.1_[A9G]_T4.1] | 32.7
UCUCUUUGUACCCUCUCUCUU (ssRNA) [Ic_S1_P4E.1_K4.1_C4.1_H4.1_A4.1_[T5C]_[A6C]_[T7C]_F4.1_[A9C]_T4.1] | 41.9
UCUCUUUGUACCCUUUCUCUU (ssRNA) [Ic_S1_P4E.1_K4.1_C4.1_H4.1_A4.1_[T5C]_[A6C]_[T7C]_F4.1_[A9T]_T4.1] | 26.8
UCUCUUUGUACCCUAUCUCUU (ssRNA) [Ic_S1_P4E.1_K4.1_C4.1_H4.1_A4.1_[T5C]_[A6C]_[T7C]_F4.1_T4.1] | 7.5
UCUCUUUGUACCAGGUCUCUU (ssRNA) [Ic_S1_P4E.1_K4.1_C4.1_H4.1_A4.1_[T5C]_[A6C]_[T7A]_F4.1_[T8G]_[A9G]_T4.1] | 1790
UCUCUUUGUACCAGCUCUCUU (ssRNA) [Ic_S1_P4E.1_K4.1_C4.1_H4.1_A4.1_[T5C]_[A6C]_[T7A]_F4.1_[T8G]_[A9C]_T4.1] | 913
UCUCUUUGUGUACAUCUCUU (ssRNA) [Ib_S1_P3E.1_K3.1_C3.1_H3.1_[A4G]_A3.1_F3.1_[T7C]_T3.1] | 38.9
UCUCUUUGUACCACGUCUCUU (ssRNA) [Ic_S1_P4E.1_K4.1_C4.1_H4.1_A4.1_[T5C]_[A6C]_[T7A]_F4.1_[T8C]_[A9G]_T4.1] | 652
UCUCUUUGUACCACCUCUCUU (ssRNA) [Ic_S1_P4E.1_K4.1_C4.1_H4.1_A4.1_[T5C]_[A6C]_[T7A]_F4.1_[T8C]_[A9C]_T4.1] | 573
UCUCUUUGUACCAAGUCUCUU (ssRNA) [Ic_S1_P4E.1_K4.1_C4.1_H4.1_A4.1_[T5C]_[A6C]_[T7A]_F4.1_[T8A]_[A9G]_T4.1] | 755
UCUCUUUGUACCAACUCUCUU (ssRNA) [Ic_S1_P4E.1_K4.1_C4.1_H4.1_A4.1_[T5C]_[A6C]_[T7A]_F4.1_[T8A]_[A9C]_T4.1] | 271
UCUCUUUGUACCAAUUCUCUU (ssRNA) [Ic_S1_P4E.1_K4.1_C4.1_H4.1_A4.1_[T5C]_[A6C]_[T7A]_F4.1_[T8A]_[A9T]_T4.1] | 103
UCUCUUUGUACCAAAUCUCUU (ssRNA) [Ic_S1_P4E.1_K4.1_C4.1_H4.1_A4.1_[T5C]_[A6C]_[T7A]_F4.1_[T8A]_T4.1] | 68
UCUCUUUGUACCAUGUCUCUU (ssRNA) [Ic_S1_P4E.1_K4.1_C4.1_H4.1_A4.1_[T5C]_[A6C]_[T7A]_F4.1_[A9G]_T4.1] | 3.4
UCUCUUUGUACCAUUUCUCUU (ssRNA) [Ic_S1_P4E.1_K4.1_C4.1_H4.1_A4.1_[T5C]_[A6C]_[T7A]_F4.1_[A9T]_T4.1] | 9.07
UCUCUUUGUACCUGUUCUCUU (ssRNA) [Ic_S1_P4E.1_K4.1_C4.1_H4.1_A4.1_[T5C]_[A6C]_F4.1_[T8G]_[A9T]_T4.1] | 94
UCUCUUUGUACCUCGUCUCUU (ssRNA) [Ic_S1_P4E.1_K4.1_C4.1_H4.1_A4.1_[T5C]_[A6C]_F4.1_[T8C]_[A9G]_T4.1] | 575
UCUCUUUGUGUAAAUCUCUU (ssRNA) [Ib_S1_P3E.1_K3.1_C3.1_H3.1_[A4G]_A3.1_F3.1_[T7A]_T3.1] | 202
UCUCUUUGUACCUCCUCUCUU (ssRNA) [Ic_S1_P4E.1_K4.1_C4.1_H4.1_A4.1_[T5C]_[A6C]_F4.1_[T8C]_[A9C]_T4.1] | 570

Source: PMC9352680, “A comprehensive thermodynamic model for RNA binding by the Saccharomyces cerevisiae Pumilio protein PUF4”
